Assay results taken from paper PMC5409451.

What was measured:
[1] = molecular target: EV71 2C 116–329 (enterovirus 71) (UniProt Q66478); assay: SEC
[2] = molecular target: EV71 2C 116–329 E325A (enterovirus 71); assay: SEC

EV71 2C 116–329 (from UniProt Q66478 117-330) (domain or fragment)
stoichiometry N [1]: 4

EV71 2C 116–329 E325A (domain or fragment)
stoichiometry N [2]: 2
